Consider two molecules from PMC7484405.

The target of data set [1] is T1, M2-1 WT (Human respiratory syncytial virus …, UniProt P04545 1-194).
T1 sequence: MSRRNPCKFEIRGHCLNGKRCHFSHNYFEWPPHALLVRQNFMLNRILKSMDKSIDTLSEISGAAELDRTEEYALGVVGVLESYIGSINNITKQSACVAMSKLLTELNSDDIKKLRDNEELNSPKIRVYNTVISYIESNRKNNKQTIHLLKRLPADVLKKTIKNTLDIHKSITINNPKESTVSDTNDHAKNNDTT
In words: X-ray crystallography.

Data set [2] concerns the target T1, M2-1 WT. In words: MST.

AGUUAAU (ssRNA) [SH7]: the binding result with M2-1 WT [1] is given as “binds”.

One may read the Kd as the equilibrium constant for the complex coming apart. Read a high Kd as a looser complex. AGUUAAUUAAAAA (ssRNA) [SH 13-nt positive-sense gene-end RNA]: the Kd with M2-1 WT [2] is 870 nM.
